Molecular target: anti-human β-tryptase antibody
Experiment: sandwich ELISA dose response: plate coated with anti-human β-tryptase antibody, β-tryptase calibrator titrated, detected with AP-conjugated anti-human β-tryptase, luminescence

EC50: 0.065 µg/mL
Substance: human β-tryptase (from UniProt Q15661 31-275) (enzyme)
